Reference: ChEMBL document CHEMBL1142227, “Structural basis for the high all-trans-retinaldehyde reductase activity of the tumor marker AKR1B10” (Proc Natl Acad Sci U S A, 2007)

Key:
[1] = test system: CC1=C(/C=C/C(C)=C/C=C/C(C)=C/C=O)C(C)(C)CCC1; assay: (§1) Activity of human AKR1B10 V301L mutant by BSA/HPLC method
[2] = test system: CC1=C(/C=C/C(C)=C\C=C\C(C)=C\C=O)C(C)(C)CCC1; assay: as §1
O=CC(O)CO [3] = assay: as §1
[4] = test system: CC1=C(/C=C/C(C)=C/C=C/C(C)=C/C=O)C(C)(C)CCC1; assay: (§2) Ratio of Kcat to Km for human AKR1B10 V301L mutant
[5] = test system: CC1=C(/C=C/C(C)=C\C=C\C(C)=C\C=O)C(C)(C)CCC1; assay: as §2
O=CC(O)CO [6] = assay: as §2
[7] = test system: CC1=C(/C=C/C(C)=C/C=C/C(C)=C/C=O)C(C)(C)CCC1; assay: (§3) Activity of human AKR1B1 by BSA/HPLC method
[8] = test system: CC1=C(/C=C/C(C)=C\C=C\C(C)=C\C=O)C(C)(C)CCC1; assay: as §3
O=CC(O)CO [9] = assay: as §3
[10] = test system: CC1=C(/C=C/C(C)=C/C=C/C(C)=C/C=O)C(C)(C)CCC1; assay: (§4) Ratio of Kcat to Km for human AKR1B1
[11] = test system: CC1=C(/C=C/C(C)=C\C=C\C(C)=C\C=O)C(C)(C)CCC1; assay: as §4
O=CC(O)CO [12] = assay: as §4
[13] = test system: CC1=C(/C=C/C(C)=C/C=C/C(C)=C/C=O)C(C)(C)CCC1; assay: (§5) Activity of human AKR1B1 by Tween 80 / spectrophotometer method
[14] = test system: CC1=C(/C=C/C(C)=C/C=C/C(C)=C/C=O)C(C)(C)C[C@@H](O)C1; assay: as §5
[15] = test system: CC1=C(/C=C/C(C)=C/C=C/C(C)=C/C=O)C(C)(C)CCC1; assay: (§6) Activity of human wild type AKR1B10 by BSA/HPLC method
[16] = test system: CC1=C(/C=C/C(C)=C\C=C\C(C)=C\C=O)C(C)(C)CCC1; assay: as §6
O=CC(O)CO [17] = assay: as §6
[18] = test system: CC1=C(/C=C/C(C)=C/C=C/C(C)=C/C=O)C(C)(C)CCC1; assay: (§7) Ratio of Kcat to Km for human wild type AKR1B10
[19] = test system: CC1=C(/C=C/C(C)=C\C=C\C(C)=C\C=O)C(C)(C)CCC1; assay: as §7
O=CC(O)CO [20] = assay: as §7
[21] = test system: CC1=C(/C=C/C(C)=C/C=C/C(C)=C/C=O)C(C)(C)CCC1; assay: (§8) Activity of human wild type AKR1B10 by Tween 80 / spectrophotometer method
[22] = test system: CC1=C(/C=C/C(C)=C/C=C/C(C)=C/C=O)C(C)(C)C[C@@H](O)C1; assay: as §8
[23] = test system: CC1=C(/C=C/C(C)=C/C=C/C(C)=C/C=O)C(C)(C)CCC1; assay: (§9) Activity of human AKR1B10 K125L mutant by BSA/HPLC method
[24] = test system: CC1=C(/C=C/C(C)=C\C=C\C(C)=C\C=O)C(C)(C)CCC1; assay: as §9
O=CC(O)CO [25] = assay: as §9
[26] = test system: CC1=C(/C=C/C(C)=C/C=C/C(C)=C/C=O)C(C)(C)CCC1; assay: (§10) Ratio of Kcat to Km for human AKR1B10 K125L mutant
[27] = test system: CC1=C(/C=C/C(C)=C\C=C\C(C)=C\C=O)C(C)(C)CCC1; assay: as §10
O=CC(O)CO [28] = assay: as §10
[29] = test system: CC1=C(/C=C/C(C)=C/C=C/C(C)=C/C=O)C(C)(C)CCC1; assay: (§11) Activity of human AKR1B10 K125L mutant by Tween 80 / spectrophotometer method
[30] = test system: CC1=C(/C=C/C(C)=C/C=C/C(C)=C/C=O)C(C)(C)C[C@@H](O)C1; assay: as §11
[31] = target: Aldo-keto reductase family 1 member B10 (Homo sapiens) (UniProt O60218); assay: Inhibition of retinaldehyde reductase activity of human AKR1B10 expressed in COS7 cells at 1 uM relative to control; assay type: cell-based; set-up: scale not given: the % may be the effect or the level left; settings: COS-7
Chain of Aldo-keto reductase family 1 member B10 (Homo sapiens) (O60218 whole entry, looked up): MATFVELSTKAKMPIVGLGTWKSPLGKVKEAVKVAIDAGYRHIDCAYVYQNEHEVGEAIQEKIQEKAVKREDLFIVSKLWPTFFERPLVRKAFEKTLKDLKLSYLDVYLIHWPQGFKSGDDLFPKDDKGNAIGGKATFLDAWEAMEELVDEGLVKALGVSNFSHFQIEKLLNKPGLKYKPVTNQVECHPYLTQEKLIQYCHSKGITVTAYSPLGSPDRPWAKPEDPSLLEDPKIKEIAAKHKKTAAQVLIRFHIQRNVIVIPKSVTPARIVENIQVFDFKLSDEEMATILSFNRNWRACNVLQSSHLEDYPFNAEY

[32] = test system: CC1=C(/C=C/C(C)=C/C=C/C(C)=C/C=O)C(C)(C)CCC1; assay: (§12) Activity of human AKR1B10 K125L/V301L mutant by BSA/HPLC method
O=CC(O)CO [33] = assay: as §12
[34] = test system: CC1=C(/C=C/C(C)=C/C=C/C(C)=C/C=O)C(C)(C)CCC1; assay: (§13) Ratio of Kcat to Km for human AKR1B10 K125L/V301L mutant
O=CC(O)CO [35] = assay: as §13

Chain of Aldo-keto reductase family 1 member B10 (Homo sapiens), O60218 (O60218 whole entry): as the sequence (O60218 whole entry, looked up) above
Chain of Aldo-keto reductase family 1 member B10 (Homo sapiens), O60218 K125L (O60218 whole entry K125L): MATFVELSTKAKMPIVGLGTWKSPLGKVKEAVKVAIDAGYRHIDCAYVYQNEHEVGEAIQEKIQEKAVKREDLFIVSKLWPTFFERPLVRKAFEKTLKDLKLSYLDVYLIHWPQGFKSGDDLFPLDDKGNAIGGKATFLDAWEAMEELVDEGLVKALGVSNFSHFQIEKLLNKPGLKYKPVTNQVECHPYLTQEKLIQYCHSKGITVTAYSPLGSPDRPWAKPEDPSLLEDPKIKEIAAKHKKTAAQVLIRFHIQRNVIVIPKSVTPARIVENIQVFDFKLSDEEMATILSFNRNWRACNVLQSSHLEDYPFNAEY
Chain of Aldo-keto reductase family 1 member B10 (Homo sapiens), O60218 K125L,V301L (O60218 whole entry K125L/V301L): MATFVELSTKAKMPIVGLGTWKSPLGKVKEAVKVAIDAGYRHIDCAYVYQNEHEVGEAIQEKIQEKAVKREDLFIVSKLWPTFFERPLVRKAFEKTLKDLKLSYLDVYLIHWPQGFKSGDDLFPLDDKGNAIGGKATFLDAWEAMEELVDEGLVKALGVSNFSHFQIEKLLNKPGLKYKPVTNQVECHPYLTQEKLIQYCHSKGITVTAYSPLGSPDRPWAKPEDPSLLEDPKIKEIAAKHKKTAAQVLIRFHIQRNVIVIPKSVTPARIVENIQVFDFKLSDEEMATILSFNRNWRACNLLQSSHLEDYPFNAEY
Chain of Aldo-keto reductase family 1 member B10 (Homo sapiens), O60218 V301L (O60218 whole entry V301L): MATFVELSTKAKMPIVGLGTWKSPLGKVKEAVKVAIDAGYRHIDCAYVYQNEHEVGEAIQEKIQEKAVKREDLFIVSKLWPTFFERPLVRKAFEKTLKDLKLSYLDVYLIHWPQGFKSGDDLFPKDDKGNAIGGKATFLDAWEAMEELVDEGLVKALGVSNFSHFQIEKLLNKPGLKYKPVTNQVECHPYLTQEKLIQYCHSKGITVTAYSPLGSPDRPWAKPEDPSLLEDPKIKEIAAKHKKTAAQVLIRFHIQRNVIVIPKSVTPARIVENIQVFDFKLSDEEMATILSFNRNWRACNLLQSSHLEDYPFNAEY

Aldo-keto reductase family 1 member B10 (Homo sapiens), O60218 V301L
Km [1]: 0.6 µM | kcat [1]: 0.128 s⁻¹ | Km [2]: 0.3 µM | kcat [2]: 0.01 s⁻¹ | Km (O=CC(O)CO [3]): 6000 µM | kcat (O=CC(O)CO [3]): 0.683 s⁻¹ | kcat/Km [4]: 212000 M⁻¹ s⁻¹ | kcat/Km [5]: 30000 M⁻¹ s⁻¹ | kcat/Km (O=CC(O)CO [6]): 117 M⁻¹ s⁻¹

Aldo-keto reductase family 1 member B1 (Homo sapiens) (from UniProt P15121)
Km [7]: 1.1 µM | kcat [7]: 0.00583 s⁻¹ | Km [8]: 0.4 µM | kcat [8]: 0.0117 s⁻¹ | Km (O=CC(O)CO [9]): 50 µM | kcat (O=CC(O)CO [9]): 0.517 s⁻¹ | kcat/Km [10]: 5330 M⁻¹ s⁻¹ | kcat/Km [11]: 25000 M⁻¹ s⁻¹ | kcat/Km (O=CC(O)CO [12]): 11000 M⁻¹ s⁻¹ | kcat [13]: 0.00617 s⁻¹ | kcat [14]: 0.0967 s⁻¹

Aldo-keto reductase family 1 member B10 (Homo sapiens), O60218
Km [15]: 0.6 µM | kcat [15]: 0.45 s⁻¹ | Km [16]: 0.7 µM | kcat [16]: 0.015 s⁻¹ | Km (O=CC(O)CO [17]): 6000 µM | kcat (O=CC(O)CO [17]): 0.583 s⁻¹ | kcat/Km [18]: 750000 M⁻¹ s⁻¹ | kcat/Km [19]: 21700 M⁻¹ s⁻¹ | kcat/Km (O=CC(O)CO [20]): 100 M⁻¹ s⁻¹ | kcat [21]: 0.297 s⁻¹ | kcat [22]: 0.288 s⁻¹

Aldo-keto reductase family 1 member B10 (Homo sapiens), O60218 K125L
Km [23]: 0.15 µM | kcat [23]: 0.0333 s⁻¹ | Km [24]: 0.7 µM | kcat [24]: 0.015 s⁻¹ | Km (O=CC(O)CO [25]): 5200 µM | kcat (O=CC(O)CO [25]): 0.593 s⁻¹ | kcat/Km [26]: 218000 M⁻¹ s⁻¹ | kcat/Km [27]: 21700 M⁻¹ s⁻¹ | kcat/Km (O=CC(O)CO [28]): 117 M⁻¹ s⁻¹ | kcat [29]: 0.0733 s⁻¹ | kcat [30]: 0.308 s⁻¹

COc1ccc2c(C(=S)N(C)CC(=O)O)cccc2c1C(F)(F)F
Activity [31]: 50%

Aldo-keto reductase family 1 member B10 (Homo sapiens), O60218 K125L,V301L
Km [32]: 1 µM | kcat [32]: 0.0583 s⁻¹ | Km (O=CC(O)CO [33]): 7300 µM | kcat (O=CC(O)CO [33]): 0.59 s⁻¹ | kcat/Km [34]: 58300 M⁻¹ s⁻¹ | kcat/Km (O=CC(O)CO [35]): 81.7 M⁻¹ s⁻¹
